How the values were obtained:
[1] = molecular target: TFIID–TFIIA complex on promoter DNA (TFIID–TFIIA–promoter complex) (human) (UniProt P20226); test: single-molecule fluorescence colocalisation (TIRF); supercore promoter DNA and a mutant control template (-63 to +90) immobilised via biotin–streptavidin; dye-labelled factors injected with unlabelled ones; a signal within ∼40 nm of a DNA position counted as binding; 2.5 Hz; 11.3 mM HEPES pH 7.9, 5.6 mM MgCl2, 45 mM KCl; the target protein is DNA-bound
Chain of TFIID–TFIIA complex on promoter DNA (TFIID–TFIIA–promoter complex) (human) (P20226 whole entry, looked up, one chain of several): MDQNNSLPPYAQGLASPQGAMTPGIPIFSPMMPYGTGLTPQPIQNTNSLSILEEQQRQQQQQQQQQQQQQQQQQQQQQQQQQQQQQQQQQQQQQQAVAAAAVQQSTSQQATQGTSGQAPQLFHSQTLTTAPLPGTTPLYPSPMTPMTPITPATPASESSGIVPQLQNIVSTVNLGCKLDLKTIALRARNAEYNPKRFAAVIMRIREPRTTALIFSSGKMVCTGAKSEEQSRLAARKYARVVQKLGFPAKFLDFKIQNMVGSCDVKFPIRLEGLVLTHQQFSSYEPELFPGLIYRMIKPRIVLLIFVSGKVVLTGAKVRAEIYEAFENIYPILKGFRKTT

[2] = molecular target: T1, TBP;TFIIA;TFIIB full length (human;human;human, UniProt P20226;P52655;P52657;Q00403 1-339;1-376;1-109;1-316, ||); test: EMSA; 10 nM DNA; Single-molecule: 11.3 mM HEPES pH 7.9, 5.6 mM MgCl2, 45 mM KCl, 45 uM EDTA, 4.5% glycerol, 3.6 ng/ul tRNA, 0.1 ng/ul poly(dG:dC), 0.09% Tween 20, 0.0045% NP40; conditions: protein: recombinant;recombinant;recombinant; tags: N-terminal 6xHis-HaloTag; TMR; GST removed by Ulp1;N-terminal tag incl. thrombin site, Ni-NTA purified; Alexa647 or TMR; copies: 1;1;1;1; label: 5' Cy3 or Atto633; 5' biotin; blunt
T1 sequence (P20226 whole entry, chain 1 of 4): as the sequence (P20226 whole entry, looked up, one chain of several) above
T1 sequence (P52655 whole entry, chain 2 of 4): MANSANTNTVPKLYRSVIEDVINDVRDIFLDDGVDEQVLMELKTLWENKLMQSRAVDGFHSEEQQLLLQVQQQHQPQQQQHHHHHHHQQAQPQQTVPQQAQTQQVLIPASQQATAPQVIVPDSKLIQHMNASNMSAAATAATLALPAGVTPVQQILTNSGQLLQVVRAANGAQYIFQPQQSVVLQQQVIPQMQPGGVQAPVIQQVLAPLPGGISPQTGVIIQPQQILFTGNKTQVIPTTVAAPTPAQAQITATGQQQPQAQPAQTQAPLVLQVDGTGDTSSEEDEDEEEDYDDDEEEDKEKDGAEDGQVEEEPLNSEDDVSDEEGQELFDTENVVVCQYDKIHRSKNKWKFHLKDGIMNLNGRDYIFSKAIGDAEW
T1 sequence (P52657 whole entry, chain 3 of 4): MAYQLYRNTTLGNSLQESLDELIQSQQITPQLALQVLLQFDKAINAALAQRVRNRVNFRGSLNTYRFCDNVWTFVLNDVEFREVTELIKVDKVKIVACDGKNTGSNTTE
T1 sequence (Q00403 whole entry, chain 4 of 4): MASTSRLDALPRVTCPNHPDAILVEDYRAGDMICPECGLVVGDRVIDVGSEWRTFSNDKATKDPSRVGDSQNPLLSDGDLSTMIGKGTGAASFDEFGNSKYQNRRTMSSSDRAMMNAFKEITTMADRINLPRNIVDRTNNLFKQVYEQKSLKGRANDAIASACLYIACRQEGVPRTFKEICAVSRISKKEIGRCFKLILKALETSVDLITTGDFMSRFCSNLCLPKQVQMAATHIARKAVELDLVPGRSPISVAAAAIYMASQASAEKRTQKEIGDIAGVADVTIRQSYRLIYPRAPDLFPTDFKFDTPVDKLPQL

[3] = molecular target: T1, TBP;TFIIA;TFIIB full length; test: EMSA; 10 nM DNA; similar efficiency to supercore; Single-molecule: 11.3 mM HEPES pH 7.9, 5.6 mM MgCl2, 45 mM KCl, 45 uM EDTA, 4.5% glycerol, 3.6 ng/ul tRNA, 0.1 ng/ul poly(dG:dC), 0.09% Tween 20, 0.0045% NP40; conditions: protein: recombinant;recombinant;recombinant; tags: N-terminal 6xHis-HaloTag; TMR; GST removed by Ulp1;N-terminal tag incl. thrombin site, Ni-NTA purified; Alexa647 or TMR; copies: 1;1;1;1; label: 5' Cy3 or Atto633; 5' biotin; blunt

**Q.** What does the source list for “TFIIB, full-length (FL) (from UniProt Q00403 1-316) (natural protein)”?
**A.** DNA-binding efficiency (percent of supercore templates colocalising with TFIIB) [1]: 30%; average residence time [1]: 1.5 s; average waiting time after TFIIA arrival (∼8 nM TFIIB) [1]: 3 s

B1: Supercore promoter template, EMSA (dsDNA)
DNA 1: CATAACCATATGTATCATACACATACGGTACTTATATAAGGGGGTGGGGGCGCGTTCGTCCTCAGTCGCGATCGAACACTCGAGCCGAGCAGACGTGCCTACGGACCGCAAGCTTCCCTATCCCTTATCTTAACCACTCCAATTACATACACC
DNA 2: GGTGTATGTAATTGGAGTGGTTAAGATAAGGGATAGGGAAGCTTGCGGTCCGTAGGCACGTCTGCTCGGCTCGAGTGTTCGATCGCGACTGAGGACGAACGCGCCCCCACCCCCTTATATAAGTACCGTATGTGTATGATACATATGGTTATG
**Q.** Does B1 bind [2]?
**A.** binds

B2: Mutant control template, EMSA (dsDNA)
DNA 1: CATAACCATATGTATCATACACATACGGTACACGTATGTGGGGGTGGGGGCGCGTTCGTCCTGTGACACGATCGAACACTCGAGCCGAGCAGCATAGCCTACGGACCGCAAGCTTCCCTATCCCTTATCTTAACCACTCCAATTACATACACC
DNA 2: GGTGTATGTAATTGGAGTGGTTAAGATAAGGGATAGGGAAGCTTGCGGTCCGTAGGCTATGCTGCTCGGCTCGAGTGTTCGATCGTGTCACAGGACGAACGCGCCCCCACCCCCACATACGTGTACCGTATGTGTATGATACATATGGTTATG
**Q.** Does B2 bind [3]?
**A.** binds

Source: publication PMC5066616, “Rapid dynamics of general transcription factor TFIIB binding during preinitiation complex assembly revealed by single-molecule analysis”
